Each block holds one binder with its values, some of them ahead of it.
What was measured:
Test in all cases: holdup assay
Design in all cases: key: below the threshold = too weak to quantify, mostly under pKd 3.1 to 4
PARD3B_1, Q8TEW8 = target: T1, PARD3B_1, Q8TEW8
T1 sequence (Q8TEW8 196-299, limits assumed, looked up): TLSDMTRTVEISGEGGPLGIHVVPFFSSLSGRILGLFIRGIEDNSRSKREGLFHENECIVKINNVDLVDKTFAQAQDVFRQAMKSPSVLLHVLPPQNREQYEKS

HTRA4, P83105 = target: T2, HTRA4, P83105
T2 sequence (P83105 378-476, limits assumed, looked up): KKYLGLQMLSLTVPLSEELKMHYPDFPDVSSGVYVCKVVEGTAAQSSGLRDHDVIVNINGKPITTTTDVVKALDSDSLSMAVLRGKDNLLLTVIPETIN

Inadl_4, Q8NI35 = target: Inadl_4, Q8NI35
Inadl_9, Q8NI35 = target: Inadl_9, Q8NI35
LRRC7, Q96NW7 = target: T3, LRRC7, Q96NW7
T3 sequence (Q96NW7 1440-1537, limits assumed, looked up): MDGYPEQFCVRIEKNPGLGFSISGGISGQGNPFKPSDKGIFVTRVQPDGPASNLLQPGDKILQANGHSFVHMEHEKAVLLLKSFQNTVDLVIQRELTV

NHERF4_2, Q86UT5 = target: NHERF4_2, Q86UT5
DLG3_3, Q92796 = target: T4, DLG3_3, Q92796
T4 sequence (Q92796 374-475, limits assumed, looked up): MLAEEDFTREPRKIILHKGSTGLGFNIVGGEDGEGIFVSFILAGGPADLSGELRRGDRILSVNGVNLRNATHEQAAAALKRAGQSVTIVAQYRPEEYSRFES

MAGI2_4, Q86UL8 = target: MAGI2_4, Q86UL8
NOS1, P29475 = target: NOS1, P29475
SYNJ2BP, P57105 = target: T5, SYNJ2BP, P57105
T5 sequence (P57105 8-110, limits assumed, looked up): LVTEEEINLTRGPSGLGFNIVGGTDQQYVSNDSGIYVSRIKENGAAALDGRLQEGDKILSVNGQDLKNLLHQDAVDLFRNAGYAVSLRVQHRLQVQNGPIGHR

MAGI3_2, Q5TCQ9 = target: MAGI3_2, Q5TCQ9
FRMPD2_3, Q68DX3 = target: FRMPD2_3, Q68DX3
LNX2_3, Q8N448 = target: T6, LNX2_3, Q8N448
T6 sequence (Q8N448 463-564, limits assumed, looked up): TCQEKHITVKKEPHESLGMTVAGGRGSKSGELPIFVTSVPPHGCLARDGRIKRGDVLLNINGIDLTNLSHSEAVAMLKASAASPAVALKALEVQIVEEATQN

GOPC, Q9HD26 = target: GOPC, Q9HD26
MAGI1_2, Q96QZ7 = target: MAGI1_2, Q96QZ7
SHANK1, Q9Y566 = target: T7, SHANK1, Q9Y566
T7 sequence (Q9Y566 658-767, limits assumed, looked up): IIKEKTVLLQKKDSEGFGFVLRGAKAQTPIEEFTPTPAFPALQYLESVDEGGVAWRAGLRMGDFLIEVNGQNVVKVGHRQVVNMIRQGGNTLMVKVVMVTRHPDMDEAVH

GORASP2, Q9H8Y8 = target: GORASP2, Q9H8Y8
DLG2_3, Q15700 = target: DLG2_3, Q15700
MAGI1_1, Q96QZ7 = target: MAGI1_1, Q96QZ7
IL16_4, Q14005 = target: IL16_4, Q14005
IL16_3, Q14005 = target: IL16_3, Q14005
ARHGAP21, Q5T5U3 = target: T8, ARHGAP21, Q5T5U3
T8 sequence (Q5T5U3 45-169, limits assumed, looked up): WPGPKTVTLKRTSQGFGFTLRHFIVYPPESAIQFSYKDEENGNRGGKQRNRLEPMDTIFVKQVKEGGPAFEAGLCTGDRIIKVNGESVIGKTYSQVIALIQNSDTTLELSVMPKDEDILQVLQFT

PCLO, Q9Y6V0 = target: T9, PCLO, Q9Y6V0
T9 sequence (Q9Y6V0 4491-4600, limits assumed, looked up): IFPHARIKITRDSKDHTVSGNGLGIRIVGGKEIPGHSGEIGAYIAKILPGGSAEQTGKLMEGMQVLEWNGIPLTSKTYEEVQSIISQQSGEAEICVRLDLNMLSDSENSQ

Inadl_6, Q8NI35 = target: Inadl_6, Q8NI35
APBA2_2, Q99767 = target: T10, APBA2_2, Q99767
T10 sequence (Q99767 654-744, limits assumed, looked up): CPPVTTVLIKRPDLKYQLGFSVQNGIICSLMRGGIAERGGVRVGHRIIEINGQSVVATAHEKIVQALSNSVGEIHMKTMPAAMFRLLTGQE

LNX1_3, Q8TBB1 = target: LNX1_3, Q8TBB1
FRMPD4, Q14CM0 = target: FRMPD4, Q14CM0
[1] = plain residues with an end cap or a label only (N-terminal biotin on a linker: ado-ado)
[2] = plain residues with an end cap or a label only (N-terminal biotin on a linker: ahx)
[3] = plain residues with an end cap or a label only (N-terminal biotin on a linker: ttds)

Sequence of MAGI2_4, Q86UL8 (Q86UL8 772-865): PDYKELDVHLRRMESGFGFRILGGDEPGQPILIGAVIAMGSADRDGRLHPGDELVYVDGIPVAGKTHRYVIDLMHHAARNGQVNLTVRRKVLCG
Sequence of NHERF4_2, Q86UT5 (Q86UT5 220-308): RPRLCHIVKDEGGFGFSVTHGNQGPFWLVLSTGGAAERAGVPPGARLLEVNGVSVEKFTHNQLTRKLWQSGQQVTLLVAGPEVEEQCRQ
Sequence of NOS1, P29475 (P29475 9-101): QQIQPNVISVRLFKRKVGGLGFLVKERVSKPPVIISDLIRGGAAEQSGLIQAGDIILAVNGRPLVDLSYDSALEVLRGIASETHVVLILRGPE
Sequence of IL16_4, Q14005 (Q14005 1229-1329): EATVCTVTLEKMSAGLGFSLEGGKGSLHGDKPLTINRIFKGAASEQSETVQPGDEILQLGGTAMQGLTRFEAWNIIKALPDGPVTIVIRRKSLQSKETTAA
Sequence of LNX1_3, Q8TBB1 (Q8TBB1 500-596): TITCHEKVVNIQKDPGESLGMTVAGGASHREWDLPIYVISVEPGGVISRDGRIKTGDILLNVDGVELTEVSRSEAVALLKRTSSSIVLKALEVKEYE
Sequence of Inadl_9, Q8NI35 (Q8NI35 1530-1615): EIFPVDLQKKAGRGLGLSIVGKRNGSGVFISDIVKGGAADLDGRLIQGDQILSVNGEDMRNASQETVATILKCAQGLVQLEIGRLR
Sequence of Inadl_6, Q8NI35 (Q8NI35 1058-1167): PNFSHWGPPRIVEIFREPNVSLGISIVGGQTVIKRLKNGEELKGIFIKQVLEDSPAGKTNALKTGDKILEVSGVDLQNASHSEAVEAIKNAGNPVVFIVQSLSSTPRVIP
Sequence of FRMPD4, Q14CM0 (Q14CM0 67-160): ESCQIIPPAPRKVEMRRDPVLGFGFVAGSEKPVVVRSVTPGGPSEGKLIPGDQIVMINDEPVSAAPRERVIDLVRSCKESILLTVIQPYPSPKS
Sequence of MAGI1_2, Q96QZ7 (Q96QZ7 456-580): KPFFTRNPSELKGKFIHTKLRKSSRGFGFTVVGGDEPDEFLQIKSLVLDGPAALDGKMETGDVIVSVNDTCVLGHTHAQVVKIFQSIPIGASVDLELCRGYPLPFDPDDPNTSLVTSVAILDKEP
Sequence of MAGI3_2, Q5TCQ9 (Q5TCQ9 398-503): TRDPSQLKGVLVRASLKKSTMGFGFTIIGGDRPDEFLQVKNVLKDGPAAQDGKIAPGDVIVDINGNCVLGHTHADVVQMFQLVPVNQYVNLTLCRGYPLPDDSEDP
Sequence of Inadl_4, Q8NI35 (Q8NI35 547-651): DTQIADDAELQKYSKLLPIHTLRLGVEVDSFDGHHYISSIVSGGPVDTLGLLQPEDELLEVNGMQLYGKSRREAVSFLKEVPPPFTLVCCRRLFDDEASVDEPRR
Sequence of IL16_3, Q14005 (Q14005 1107-1207): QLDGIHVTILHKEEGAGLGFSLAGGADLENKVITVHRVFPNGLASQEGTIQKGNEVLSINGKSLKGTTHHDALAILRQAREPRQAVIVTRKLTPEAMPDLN
Sequence of FRMPD2_3, Q68DX3 (Q68DX3 1073-1166): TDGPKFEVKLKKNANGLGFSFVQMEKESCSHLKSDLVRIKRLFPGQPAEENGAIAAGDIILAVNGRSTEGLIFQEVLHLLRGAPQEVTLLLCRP
Sequence of MAGI1_1, Q96QZ7 (Q96QZ7 1-106): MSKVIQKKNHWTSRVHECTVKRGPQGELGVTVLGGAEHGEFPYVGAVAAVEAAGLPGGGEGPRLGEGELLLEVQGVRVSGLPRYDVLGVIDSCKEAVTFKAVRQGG

pKd (PARD3B_1, Q8TEW8; [1]): 4.1
pKd (HTRA4, P83105; [1]): 3.99
pKd (Inadl_4, Q8NI35; [1]): below the threshold
pKd (Inadl_9, Q8NI35; [1]): below the threshold
pKd (LRRC7, Q96NW7; [1]): below the threshold
pKd (NHERF4_2, Q86UT5; [1]): 3.64
pKd (DLG3_3, Q92796; [1]): below the threshold
pKd (MAGI2_4, Q86UL8; [1]): 3.54
pKd (NOS1, P29475; [1]): below the threshold
pKd (SYNJ2BP, P57105; [1]): below the threshold
pKd (MAGI3_2, Q5TCQ9; [1]): below the threshold
pKd (FRMPD2_3, Q68DX3; [1]): below the threshold
pKd (LNX2_3, Q8N448; [1]): below the threshold
pKd (GOPC, Q9HD26; [1]): 3.6
pKd (MAGI1_2, Q96QZ7; [1]): below the threshold
pKd (SHANK1, Q9Y566; [1]): below the threshold
pKd (GORASP2, Q9H8Y8; [1]): below the threshold
pKd (DLG2_3, Q15700; [1]): below the threshold
pKd (MAGI1_1, Q96QZ7; [1]): below the threshold
pKd (IL16_4, Q14005; [1]): 3.68
pKd (IL16_3, Q14005; [1]): below the threshold
pKd (ARHGAP21, Q5T5U3; [1]): 4.08
pKd (PCLO, Q9Y6V0; [1]): below the threshold
pKd (Inadl_6, Q8NI35; [1]): below the threshold
pKd (APBA2_2, Q99767; [1]): below the threshold
pKd (LNX1_3, Q8TBB1; [1]): below the threshold
pKd (FRMPD4, Q14CM0; [1]): 3.71
Binder: PDSYHRRDFW [U2AF2, P26368]

pKd (PARD3B_1, Q8TEW8; [2]): below the threshold
pKd (HTRA4, P83105; [2]): 3.53
pKd (Inadl_4, Q8NI35; [2]): below the threshold
pKd (Inadl_9, Q8NI35; [2]): 3.87
pKd (LRRC7, Q96NW7; [2]): below the threshold
pKd (NHERF4_2, Q86UT5; [2]): below the threshold
pKd (DLG3_3, Q92796; [2]): below the threshold
pKd (MAGI2_4, Q86UL8; [2]): 3.64
pKd (NOS1, P29475; [2]): 3.55
pKd (SYNJ2BP, P57105; [2]): 4.33
pKd (MAGI3_2, Q5TCQ9; [2]): below the threshold
pKd (FRMPD2_3, Q68DX3; [2]): below the threshold
pKd (LNX2_3, Q8N448; [2]): below the threshold
pKd (GOPC, Q9HD26; [2]): below the threshold
pKd (MAGI1_2, Q96QZ7; [2]): below the threshold
pKd (SHANK1, Q9Y566; [2]): 3.76
pKd (GORASP2, Q9H8Y8; [2]): below the threshold
pKd (DLG2_3, Q15700; [2]): 4.13
pKd (MAGI1_1, Q96QZ7; [2]): below the threshold
pKd (IL16_4, Q14005; [2]): below the threshold
pKd (IL16_3, Q14005; [2]): below the threshold
pKd (ARHGAP21, Q5T5U3; [2]): below the threshold
pKd (PCLO, Q9Y6V0; [2]): below the threshold
pKd (Inadl_6, Q8NI35; [2]): below the threshold
pKd (APBA2_2, Q99767; [2]): below the threshold
pKd (LNX1_3, Q8TBB1; [2]): below the threshold
pKd (FRMPD4, Q14CM0; [2]): below the threshold
Binder: KDECVIATEV [DLL1, O00548]

pKd (PARD3B_1, Q8TEW8; [3]): below the threshold
pKd (HTRA4, P83105; [3]): below the threshold
pKd (Inadl_4, Q8NI35; [3]): below the threshold
pKd (Inadl_9, Q8NI35; [3]): 3.52
pKd (LRRC7, Q96NW7; [3]): below the threshold
pKd (NHERF4_2, Q86UT5; [3]): below the threshold
pKd (DLG3_3, Q92796; [3]): below the threshold
pKd (MAGI2_4, Q86UL8; [3]): 3.69
pKd (NOS1, P29475; [3]): below the threshold
pKd (SYNJ2BP, P57105; [3]): 5
pKd (MAGI3_2, Q5TCQ9; [3]): 3.81
pKd (FRMPD2_3, Q68DX3; [3]): below the threshold
pKd (LNX2_3, Q8N448; [3]): below the threshold
pKd (GOPC, Q9HD26; [3]): 3.65
pKd (MAGI1_2, Q96QZ7; [3]): below the threshold
pKd (SHANK1, Q9Y566; [3]): 3.49
pKd (GORASP2, Q9H8Y8; [3]): below the threshold
pKd (DLG2_3, Q15700; [3]): 3.63
pKd (MAGI1_1, Q96QZ7; [3]): below the threshold
pKd (IL16_4, Q14005; [3]): below the threshold
pKd (IL16_3, Q14005; [3]): below the threshold
pKd (ARHGAP21, Q5T5U3; [3]): below the threshold
pKd (PCLO, Q9Y6V0; [3]): below the threshold
pKd (Inadl_6, Q8NI35; [3]): below the threshold
pKd (APBA2_2, Q99767; [3]): below the threshold
pKd (LNX1_3, Q8TBB1; [3]): 3.55
pKd (FRMPD4, Q14CM0; [3]): below the threshold
Binder: KQVVPFSSSV [GDA, Q9Y2T3]
